This note sets out measurements from patent US20230331800A1.

Assay [1] deals with IL2 receptors on lymphocyte populations of human PBMCs (human) (UniProt P01589). As to the kind of experiment: cell-based or functional assay.
For assay [2], the target named is OT-I TCR (ovalbumin(257-264)-specific T cell receptor of OT-1 TCR transgenic mouse CD8+ T cells) (mouse). The assay is described as follows: cell-based or functional assay. Particulars: scale: orders of magnitude higher potency than T5-IL2M6.

Chain of UniProt P01589 (P01589 22-272, chain 1 of 3): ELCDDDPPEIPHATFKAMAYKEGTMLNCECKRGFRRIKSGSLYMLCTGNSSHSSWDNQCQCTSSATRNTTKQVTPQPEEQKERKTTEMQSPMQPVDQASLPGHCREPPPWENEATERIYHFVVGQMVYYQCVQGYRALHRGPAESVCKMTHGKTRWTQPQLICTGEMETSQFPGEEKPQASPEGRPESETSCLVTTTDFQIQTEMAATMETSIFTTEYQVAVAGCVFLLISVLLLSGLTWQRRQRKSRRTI
Chain of UniProt P01589 (P14784 27-551, chain 2 of 3, further chain): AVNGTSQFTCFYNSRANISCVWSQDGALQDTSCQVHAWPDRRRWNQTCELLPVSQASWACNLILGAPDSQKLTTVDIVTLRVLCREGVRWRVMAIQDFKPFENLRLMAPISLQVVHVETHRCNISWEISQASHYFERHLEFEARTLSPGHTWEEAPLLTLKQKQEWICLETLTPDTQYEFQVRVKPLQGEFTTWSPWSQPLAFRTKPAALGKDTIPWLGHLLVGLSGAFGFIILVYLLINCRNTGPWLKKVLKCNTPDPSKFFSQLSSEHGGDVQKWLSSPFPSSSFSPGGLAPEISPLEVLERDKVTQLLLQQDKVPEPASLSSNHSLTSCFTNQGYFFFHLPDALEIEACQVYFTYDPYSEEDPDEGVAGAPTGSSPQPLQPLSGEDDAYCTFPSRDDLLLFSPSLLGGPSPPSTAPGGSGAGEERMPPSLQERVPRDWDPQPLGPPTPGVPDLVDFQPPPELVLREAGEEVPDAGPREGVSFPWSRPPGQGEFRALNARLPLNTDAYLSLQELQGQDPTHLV
Chain of UniProt P01589 (P31785 23-369, chain 3 of 3, further chain): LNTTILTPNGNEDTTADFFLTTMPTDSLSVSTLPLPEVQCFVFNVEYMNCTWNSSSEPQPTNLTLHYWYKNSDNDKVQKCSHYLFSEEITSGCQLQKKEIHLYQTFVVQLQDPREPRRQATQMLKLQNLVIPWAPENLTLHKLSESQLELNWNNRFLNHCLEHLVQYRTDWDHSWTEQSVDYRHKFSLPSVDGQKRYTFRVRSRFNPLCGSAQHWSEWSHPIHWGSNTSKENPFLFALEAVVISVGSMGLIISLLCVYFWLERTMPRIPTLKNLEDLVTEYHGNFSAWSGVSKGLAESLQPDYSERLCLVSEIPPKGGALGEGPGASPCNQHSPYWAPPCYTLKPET

The substance “IL2M5: Fc-GGGGS-human IL2 (N88D, C125A) fusion (Fc fusion)” displayed a potency in STAT5 phosphorylation on multiple lymphocyte populations (FIG. 14A-C), against IL2M4 (fold less potent than IL2M4) in assay [1] of more than 100.
Substance “T4-IL2M6: OVA(257-264)-GCGGS-(GGGGS)2-mB2m-(GGGGS)4-mH2Kb-(GGGGS)4-Fc-(GGGGS)3-hIL2(H16A, F42A) (Fc fusion)” came in with a potency in inducing STAT5 phosphorylation in CD8+ OT-I T cells, against T5-IL2M6 in assay [2] of 2.
On to “IL2M2: Human IL2-(GGGGS)4-human IL-2Ra-GGGGS-Fc (Fc fusion)”, for which, in assay [1], the potency in STAT5 phosphorylation on multiple lymphocyte populations (FIG. 12A-C), against IL2M0 (fold less potent than IL2M0) was determined as 100.
